Experimental data from paper PMC13431160.

Target: IRE1, ER stress sensor RNase, endogenous in HCT116 cells (human (endogenous in HCT116)) (UniProt O75460)
Assay: co-IP; endogenous IRE1 immunoprecipitated from HCT116 WT lysate (anti-IRE1 clone B-12 cross-linked to protein G Dynabeads, 3 h at 4°C; 25 mM HEPES pH 7.3, 150 mM NaCl, 0.5% NP-40); cells treated with DMSO or TM 5 µg/mL 4 h; with or without RNase I and RNase T1 in the second wash; Western blot of IGF2BP3

UniProt O75460, sequence (O75460 19-977): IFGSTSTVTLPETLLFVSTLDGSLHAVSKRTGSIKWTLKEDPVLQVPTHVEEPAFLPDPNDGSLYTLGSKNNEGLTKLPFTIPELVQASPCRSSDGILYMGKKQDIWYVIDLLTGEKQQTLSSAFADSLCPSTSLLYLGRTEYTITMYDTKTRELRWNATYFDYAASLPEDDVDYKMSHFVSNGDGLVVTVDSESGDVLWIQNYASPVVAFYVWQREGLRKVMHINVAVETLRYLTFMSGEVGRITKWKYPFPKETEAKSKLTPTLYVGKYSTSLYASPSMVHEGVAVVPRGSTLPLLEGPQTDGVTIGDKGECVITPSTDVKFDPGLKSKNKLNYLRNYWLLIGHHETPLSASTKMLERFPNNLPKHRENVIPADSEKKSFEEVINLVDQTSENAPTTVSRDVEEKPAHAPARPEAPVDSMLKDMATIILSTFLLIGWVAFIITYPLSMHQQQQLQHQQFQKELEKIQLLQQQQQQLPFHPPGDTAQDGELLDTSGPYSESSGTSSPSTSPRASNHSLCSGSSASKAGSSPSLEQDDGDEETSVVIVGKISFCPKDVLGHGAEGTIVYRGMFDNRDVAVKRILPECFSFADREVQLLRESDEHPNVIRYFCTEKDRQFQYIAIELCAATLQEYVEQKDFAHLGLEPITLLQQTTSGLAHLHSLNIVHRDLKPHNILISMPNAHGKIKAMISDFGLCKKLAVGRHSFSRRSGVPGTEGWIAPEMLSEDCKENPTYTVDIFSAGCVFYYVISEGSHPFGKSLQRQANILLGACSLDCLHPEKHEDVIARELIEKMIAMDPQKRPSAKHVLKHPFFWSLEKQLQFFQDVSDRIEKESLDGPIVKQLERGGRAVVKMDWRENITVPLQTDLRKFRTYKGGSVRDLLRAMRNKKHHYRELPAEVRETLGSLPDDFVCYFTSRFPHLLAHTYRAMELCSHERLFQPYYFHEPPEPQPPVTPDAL

fold change of the interaction after 4 h of ER stress against unstressed controls: 1.6 fold
Substance: IGF2BP3 (insulin-like growth factor 2 mRNA-binding protein 3), endogenous in HCT116 cells (from UniProt O00425 1-579) (natural protein)
